25 substances from patent publication US20080014191A1 can be followed below.

For experiment [1], the target named is wild-type cystic fibrosis transmembrane conductance regulator (CFTR) (Homo sapiens (Human)) (UniProt P13569). Description: CFTR co-IP, MudPIT MS; BHK wt, Calu-3, HT29, T84.
Experiment [2] concerns the target ΔF508 CFTR (Homo sapiens (Human)) (UniProt P13569). Description: CFTR co-IP, MudPIT MS; ΔF508.
Experiment [3] addresses wild-type cystic fibrosis transmembrane conductance regulator (CFTR) (Homo sapiens (Human)) (UniProt P13569). Description: CFTR co-IP, MudPIT MS; Calu-3 cells.
Experiment [4] has the same target. Nature of the experiment: CFTR co-IP, MudPIT MS; HT29 cells.
For experiment [5] the target is unchanged. Description: CFTR co-IP, MudPIT MS; cell line not stated.
The target is the same in experiment [6]. Description: CFTR co-IP, MudPIT MS; BHK cells.
For experiment [7], the target named is ΔF508 CFTR (Homo sapiens (Human)) (UniProt P13569). Description: CFTR co-IP and Hsp90 immunoblot; HEK293 ΔF508 cells, ~60% knock-down of Aha1.
Sequence of ΔF508 CFTR (Homo sapiens (Human)) (P13569 other isoform, or with tags, fused parts or gaps mutant limits assumed): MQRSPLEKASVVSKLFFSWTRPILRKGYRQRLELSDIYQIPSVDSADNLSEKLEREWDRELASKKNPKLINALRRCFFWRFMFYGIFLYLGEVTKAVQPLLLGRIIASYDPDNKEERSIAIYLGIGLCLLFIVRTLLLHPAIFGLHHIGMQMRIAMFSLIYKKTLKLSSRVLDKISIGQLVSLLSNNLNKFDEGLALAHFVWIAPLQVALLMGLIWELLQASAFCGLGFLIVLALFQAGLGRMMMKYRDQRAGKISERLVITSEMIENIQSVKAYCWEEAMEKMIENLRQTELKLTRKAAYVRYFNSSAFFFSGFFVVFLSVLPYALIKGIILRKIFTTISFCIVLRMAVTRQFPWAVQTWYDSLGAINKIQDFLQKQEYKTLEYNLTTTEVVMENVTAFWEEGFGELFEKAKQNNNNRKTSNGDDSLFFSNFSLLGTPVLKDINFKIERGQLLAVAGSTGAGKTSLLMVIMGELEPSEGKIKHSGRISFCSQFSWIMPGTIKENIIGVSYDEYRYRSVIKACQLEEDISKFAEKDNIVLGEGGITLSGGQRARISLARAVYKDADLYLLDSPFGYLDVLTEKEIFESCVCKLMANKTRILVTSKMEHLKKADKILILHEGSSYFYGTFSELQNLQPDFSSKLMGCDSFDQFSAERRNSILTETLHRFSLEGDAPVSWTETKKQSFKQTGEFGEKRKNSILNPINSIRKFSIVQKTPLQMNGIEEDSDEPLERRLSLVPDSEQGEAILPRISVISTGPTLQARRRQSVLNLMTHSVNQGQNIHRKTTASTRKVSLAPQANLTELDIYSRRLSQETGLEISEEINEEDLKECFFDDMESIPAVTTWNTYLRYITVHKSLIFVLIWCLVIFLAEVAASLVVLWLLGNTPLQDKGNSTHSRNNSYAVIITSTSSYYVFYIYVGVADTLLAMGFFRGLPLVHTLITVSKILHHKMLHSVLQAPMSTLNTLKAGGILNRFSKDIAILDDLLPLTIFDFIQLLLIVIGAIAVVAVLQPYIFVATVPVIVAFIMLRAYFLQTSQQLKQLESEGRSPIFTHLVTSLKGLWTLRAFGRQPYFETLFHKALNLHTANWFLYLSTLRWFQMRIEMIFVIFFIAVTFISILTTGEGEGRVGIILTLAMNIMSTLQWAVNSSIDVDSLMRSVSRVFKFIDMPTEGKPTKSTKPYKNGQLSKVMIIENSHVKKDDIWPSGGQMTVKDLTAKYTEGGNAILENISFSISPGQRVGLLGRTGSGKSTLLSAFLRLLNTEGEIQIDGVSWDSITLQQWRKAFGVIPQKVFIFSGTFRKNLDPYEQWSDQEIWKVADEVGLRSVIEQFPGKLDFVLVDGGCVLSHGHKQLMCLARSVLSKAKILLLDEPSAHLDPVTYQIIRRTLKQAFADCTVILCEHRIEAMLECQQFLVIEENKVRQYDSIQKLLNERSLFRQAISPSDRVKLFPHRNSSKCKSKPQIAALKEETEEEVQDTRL

Sequence of wild-type cystic fibrosis transmembrane conductance regulator (CFTR) (Homo sapiens (Human)) (P13569 whole entry): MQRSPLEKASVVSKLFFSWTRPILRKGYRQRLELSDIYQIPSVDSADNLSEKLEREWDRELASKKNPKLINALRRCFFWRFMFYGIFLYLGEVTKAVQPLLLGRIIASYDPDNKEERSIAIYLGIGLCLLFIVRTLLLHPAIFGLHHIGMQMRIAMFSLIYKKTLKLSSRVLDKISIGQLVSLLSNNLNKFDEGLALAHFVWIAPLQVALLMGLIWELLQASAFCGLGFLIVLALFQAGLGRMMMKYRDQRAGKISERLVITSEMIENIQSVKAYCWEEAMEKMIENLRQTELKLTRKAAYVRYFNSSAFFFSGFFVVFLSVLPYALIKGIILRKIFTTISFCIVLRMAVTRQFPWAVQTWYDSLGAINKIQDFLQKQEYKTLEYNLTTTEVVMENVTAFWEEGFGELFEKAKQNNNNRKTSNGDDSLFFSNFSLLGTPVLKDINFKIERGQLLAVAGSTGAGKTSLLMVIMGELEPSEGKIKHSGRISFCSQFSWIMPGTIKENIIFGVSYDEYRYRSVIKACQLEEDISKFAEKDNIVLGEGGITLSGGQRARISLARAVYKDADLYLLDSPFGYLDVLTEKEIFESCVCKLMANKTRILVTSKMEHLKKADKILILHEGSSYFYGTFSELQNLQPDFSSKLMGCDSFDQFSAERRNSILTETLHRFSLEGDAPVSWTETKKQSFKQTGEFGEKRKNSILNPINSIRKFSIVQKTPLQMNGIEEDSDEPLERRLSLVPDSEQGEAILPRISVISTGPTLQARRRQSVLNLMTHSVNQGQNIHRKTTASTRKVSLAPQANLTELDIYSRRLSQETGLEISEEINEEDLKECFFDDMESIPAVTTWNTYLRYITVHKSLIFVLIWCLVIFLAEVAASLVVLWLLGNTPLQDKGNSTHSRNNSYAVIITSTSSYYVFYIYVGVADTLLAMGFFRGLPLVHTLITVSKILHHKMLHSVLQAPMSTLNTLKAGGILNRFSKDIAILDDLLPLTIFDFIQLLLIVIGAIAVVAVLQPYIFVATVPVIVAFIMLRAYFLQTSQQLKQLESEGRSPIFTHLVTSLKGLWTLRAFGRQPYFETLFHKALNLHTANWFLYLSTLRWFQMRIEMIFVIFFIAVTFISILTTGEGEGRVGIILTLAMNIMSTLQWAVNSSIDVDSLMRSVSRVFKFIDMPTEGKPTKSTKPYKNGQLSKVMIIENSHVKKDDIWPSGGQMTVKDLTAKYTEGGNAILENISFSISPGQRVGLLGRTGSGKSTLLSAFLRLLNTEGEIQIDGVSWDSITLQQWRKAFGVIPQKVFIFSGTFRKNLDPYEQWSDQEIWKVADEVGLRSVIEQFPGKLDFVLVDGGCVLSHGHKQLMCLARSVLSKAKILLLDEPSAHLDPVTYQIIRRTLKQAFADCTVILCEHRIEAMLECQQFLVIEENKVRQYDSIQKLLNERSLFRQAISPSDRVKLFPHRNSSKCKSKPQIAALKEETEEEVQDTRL

In experiment [1], “Sec61, alpha subunit 2 (from UniProt Q9H9S3 1-476)” had a % sequence coverage of 11%, a total peptide spectra of 2 spectra and a unique peptide spectra of 2 spectra.
For “ubiquitin specific protease 9 (from UniProt Q93008 1-2554) (enzyme)”, in experiment [1], the % sequence coverage turned out to be 1%, the total peptide spectra was 3 spectra and the unique peptide spectra amounted to 2 spectra.
On to “proteasome 26S, non-ATPase, 2 (from UniProt Q13200 1-908)”, for which, in experiment [1], the % sequence coverage was determined as 4%, the total peptide spectra turned out to be 2 spectra and the unique peptide spectra is 2 spectra. In experiment [2], this substance had a % sequence coverage of 13%, a total peptide spectra of 8 spectra and a unique peptide spectra of 7 spectra.
In experiment [3], NHERF-2 (from UniProt Q15599 1-337) displayed a % sequence coverage of 14%, a total peptide spectra of 5 spectra and a unique peptide spectra of 4 spectra. Also, in experiment [4], the % sequence coverage was 20%, the total peptide spectra stood at 10 spectra and the unique peptide spectra came out at 7 spectra.
In experiment [2], “proteasome, beta type, 4 (from UniProt P28070 46-264)” yielded a % sequence coverage of 16%, a total peptide spectra of 2 spectra and a unique peptide spectra of 2 spectra.
In experiment [1], “THR interactor 12 (from UniProt Q14669 2-1992)” showed a % sequence coverage of 2%, a total peptide spectra of 2 spectra and a unique peptide spectra of 2 spectra.
For “proteasome 26S, non-ATPase, 11 (from UniProt O00231 2-422)”, in experiment [2], the % sequence coverage was 5%, the total peptide spectra amounted to 2 spectra and the unique peptide spectra is 2 spectra.
In experiment [5], “sortilin-related receptor L (SORL1) (from UniProt Q92673 82-2214)” gave a % sequence coverage of 1%, a total peptide spectra of 12 spectra and a unique peptide spectra of 1 spectra.
Turning to “proteasome, alpha type 5 (from UniProt Q9Z2U1 1-241)”, in experiment [2], the % sequence coverage is 23%, the total peptide spectra is 3 spectra and the unique peptide spectra amounted to 3 spectra.
In experiment [5], βCOP (from UniProt P53618 2-953) showed a % sequence coverage of 5%, a total peptide spectra of 2 spectra and a unique peptide spectra of 2 spectra.
In experiment [1], “VCP/p97/Cdc48 (from UniProt P55072 2-806)” showed a % sequence coverage of 7%, a total peptide spectra of 2 spectra and a unique peptide spectra of 2 spectra. In experiment [2], this substance showed a % sequence coverage of 25%, a total peptide spectra of 14 spectra and a unique peptide spectra of 10 spectra.
In experiment [4], NHERF-1 (from UniProt O14745 2-358) yielded a % sequence coverage of 11%, a total peptide spectra of 2 spectra and a unique peptide spectra of 2 spectra. Further, in experiment [6], the % sequence coverage amounted to 20%, the total peptide spectra came out at 6 spectra and the unique peptide spectra amounted to 5 spectra.
In experiment [5], ARF4 (from UniProt P61750 2-180) came in with a % sequence coverage of 16%, a total peptide spectra of 4 spectra and a unique peptide spectra of 2 spectra.
Take “Sec61 alpha subunit isoform 1 (from UniProt P61619 1-476)”: in experiment [1], the % sequence coverage was found to be 11%, the total peptide spectra worked out at 7 spectra and the unique peptide spectra came out at 4 spectra.
In experiment [2], “proteasome, beta type 1 (from UniProt O09061 28-240)” displayed a % sequence coverage of 23%, a total peptide spectra of 3 spectra and a unique peptide spectra of 3 spectra.
In the case of “ubiquitin protein ligase E3A (from UniProt Q05086 1-875) (enzyme)”, in experiment [1], the % sequence coverage was 6%, the total peptide spectra is 2 spectra and the unique peptide spectra came to 2 spectra.
On to Hsp90, for which, in experiment [7], the decrease of bound Hsp90 (ratio of Hsp90 to CFTR in the immunoprecipitate) after Aha1 dsRNA against scrambled control was 50 to 60%.
As for “VCP (RefSeq NM_009503) (from UniProt Q01853 2-806)”, in experiment [5], the % sequence coverage was 7%, the total peptide spectra turned out to be 2 spectra and the unique peptide spectra was found to be 2 spectra.
In experiment [5], “disabled homolog 2 (Dab2) (from UniProt P98078 2-766)” came in with a % sequence coverage of 5%, a total peptide spectra of 3 spectra and a unique peptide spectra of 3 spectra.
In experiment [2], “proteasome, alpha type 2 (from UniProt P49722 2-234)” displayed a % sequence coverage of 17%, a total peptide spectra of 5 spectra and a unique peptide spectra of 2 spectra.
Regarding “proteasome 26S, ATPase 3 (from UniProt O88685 1-442)”, in experiment [2], the % sequence coverage was determined as 8%, the total peptide spectra came out at 3 spectra and the unique peptide spectra was 2 spectra.
Taken in the same sequence, the figures for “proteasome 26S, ATPase, 4 (from UniProt P43686 1-418)” were 12%, 3 spectra and 2 spectra.
In experiment [5], “sorting nexin 9 (from UniProt Q9Y5X1 1-595)” registered a % sequence coverage of 5%, a total peptide spectra of 2 spectra and a unique peptide spectra of 2 spectra.
Consider “proteasome, beta type, 3 (from UniProt P49720 2-205)”, for which, in experiment [2], the % sequence coverage is 24%, the total peptide spectra is 3 spectra and the unique peptide spectra is 3 spectra.
As to enthoprotin (from UniProt Q14677 1-625), in experiment [5], the % sequence coverage was determined as 9%, the total peptide spectra turned out to be 5 spectra and the unique peptide spectra was 4 spectra.
